From US20240228660A1 (IP2IPO INNOVATIONS, published 2024)
Like-named read-outs stand apart in the source and are kept apart here.

B1: 1-G5_H2_VL-par (antibody, human IgG1, kappa, V domains shown)
VH: QQLVESGGGVVQPGRSLRLSCAASGFSLSSYDMTWVRQAPGKGLEWIGSIHATGITFYANWAKGRFTTSKDSNTVYLQMNSLRAEDTATYFCARGLVDLNMWGQGTLVTVSS
VL: DPVMTQTASSVSAAVGGTVTINCQASQSVYNNNYLSWYQQKPGQPPKLLIYDASTLASGVPSRFSGNGSGTQFTLTISGVQCDDAATYYCQGSYYSGGWDTAFGGGTKVVVKT
notes: also called 1-G5_H2 (hIgG1)
B2: 1-G5_H1_VL-par (antibody, human IgG1, kappa, V domains shown)
VH: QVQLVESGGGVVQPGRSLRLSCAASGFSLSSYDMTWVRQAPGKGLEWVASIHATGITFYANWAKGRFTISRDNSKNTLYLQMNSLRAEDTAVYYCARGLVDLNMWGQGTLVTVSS
VL: DPVMTQTASSVSAAVGGTVTINCQASQSVYNNNYLSWYQQKPGQPPKLLIYDASTLASGVPSRFSGNGSGTQFTLTISGVQCDDAATYYCQGSYYSGGWDTAFGGGTKVVVKT
notes: also called 1-G5_H1 (hIgG1)
B3: 1-G5_H0_VL-par rep (antibody, human IgG1, kappa, V domains shown)
VH: QVQLVESGGGVVQPGRSLRLSCAASGFTFSSYDMTWVRQAPGKGLEWVASIHATGITFYANWAKGRFTISRDNSKNTLYLQMNSLRAEDTAVYYCARGLVDLNMWGQGTLVTVSS
VL: DPVMTQTASSVSAAVGGTVTINCQASQSVYNNNYLSWYQQKPGQPPKLLIYDASTLASGVPSRFSGNGSGTQFTLTISGVQCDDAATYYCQGSYYSGGWDTAFGGGTKVVVKT
notes: also called 1-G5_H0 (hIgG1)
B4: 1-G5_VH-par_VL-par (antibody, human IgG1, kappa)
heavy chain: not shown
light chain: DPVMTQTASSVSAAVGGTVTINCQASQSVYNNNYLSWYQQKPGQPPKLLIYDASTLASGVPSRFSGNGSGTQFTLTISGVQCDDAATYYCQGSYYSGGWDTAFGGGTKVVVKTVAAPSVFIFPPSDEQLKSGTASVVCLLNNFYPREAKVQWKVDNALQSGNSQESVTEQDSKDSTYSLSSTLTLSKADYEKHKVYACEVTHQGLSSPVTKSFNRGEC
notes: also called 1-G5_parental (hIgG1)
B5: 4-H3_H0_L0 (antibody, human IgG1, kappa, V domains shown)
VH: QVQLVESGGGVVQPGRSLRLSCAASGFTFSSNAMNWVRQAPGKGLEWVAGIYGHDTSYYAAWAKGRFTISRDNSKNTLYLQMNSLRAEDTAVYYCARGFIYFDIWGQGTLVTVSS
VL: DIQMTQSPSSLSASVGDRVTITCLASEDIASGISWYQQKPGKAPKLLIYGASNLESGVPSRFSGSGSGTDFTLTISSLQPEDFATYYCLGGYSFSSNGLTFGGGTKVEIKT
notes: humanised, human IgG1 kappa
B6: 4-H3_H7_L1 (antibody, human IgG1, kappa, V domains shown)
VH: QVQLVESGGGVVQPGRSLRLSCAASGIDLTSNAMNWVRQAPGKGLEWIGGIYGHDTSYYAAWAKGRFTISRDNSKNTVYLQMNSLRAEDTATYFCARGFIYFDIWGQGTLVTVSS
VL: DYQMTQSPSSLSASVGDRVTITCLASEDIASGISWYQQKPGKAPKLLIYGASNLESGVPSRFSGSGSGTDYTLTISSLQPEDFATYYCLGGYSFSSNGLTFGGGTKVEIKT
notes: humanised, human IgG1 kappa
B7: 4-H3_H7_L0 rep (antibody, human IgG1, kappa, V domains shown)
VH: QVQLVESGGGVVQPGRSLRLSCAASGIDLTSNAMNWVRQAPGKGLEWIGGIYGHDTSYYAAWAKGRFTISRDNSKNTVYLQMNSLRAEDTATYFCARGFIYFDIWGQGTLVTVSS
VL: DIQMTQSPSSLSASVGDRVTITCLASEDIASGISWYQQKPGKAPKLLIYGASNLESGVPSRFSGSGSGTDFTLTISSLQPEDFATYYCLGGYSFSSNGLTFGGGTKVEIKT
notes: humanised, human IgG1 kappa
B8: 4-H3_H6_L0 (antibody, human IgG1, kappa)
heavy: not shown
light: DIQMTQSPSSLSASVGDRVTITCLASEDIASGISWYQQKPGKAPKLLIYGASNLESGVPSRFSGSGSGTDFTLTISSLQPEDFATYYCLGGYSFSSNGLTFGGGTKVEIKTVAAPSVFIFPPSDEQLKSGTASVVCLLNNFYPREAKVQWKVDNALQSGNSQESVTEQDSKDSTYSLSSTLTLSKADYEKHKVYACEVTHQGLSSPVTKSFNRGEC
notes: humanised, human IgG1 kappa
B9: 4-H3_H5_L1 (antibody, human IgG1, kappa)
heavy: not shown
light: DYQMTQSPSSLSASVGDRVTITCLASEDIASGISWYQQKPGKAPKLLIYGASNLESGVPSRFSGSGSGTDYTLTISSLQPEDFATYYCLGGYSFSSNGLTFGGGTKVEIKTVAAPSVFIFPPSDEQLKSGTASVVCLLNNFYPREAKVQWKVDNALQSGNSQESVTEQDSKDSTYSLSSTLTLSKADYEKHKVYACEVTHQGLSSPVTKSFNRGEC
notes: humanised, human IgG1 kappa
B10: 4-H3_H6_L1 (antibody, human IgG1, kappa)
heavy: not shown
light: DYQMTQSPSSLSASVGDRVTITCLASEDIASGISWYQQKPGKAPKLLIYGASNLESGVPSRFSGSGSGTDYTLTISSLQPEDFATYYCLGGYSFSSNGLTFGGGTKVEIKTVAAPSVFIFPPSDEQLKSGTASVVCLLNNFYPREAKVQWKVDNALQSGNSQESVTEQDSKDSTYSLSSTLTLSKADYEKHKVYACEVTHQGLSSPVTKSFNRGEC
notes: humanised, human IgG1 kappa
B11: 4-H3_H5_L0 (antibody, human IgG1, kappa)
heavy: not shown
light: DIQMTQSPSSLSASVGDRVTITCLASEDIASGISWYQQKPGKAPKLLIYGASNLESGVPSRFSGSGSGTDFTLTISSLQPEDFATYYCLGGYSFSSNGLTFGGGTKVEIKTVAAPSVFIFPPSDEQLKSGTASVVCLLNNFYPREAKVQWKVDNALQSGNSQESVTEQDSKDSTYSLSSTLTLSKADYEKHKVYACEVTHQGLSSPVTKSFNRGEC
notes: humanised, human IgG1 kappa
B12: 1-G5_VH-par_L1 (antibody, human IgG1, kappa)
heavy chain: not shown
light chain: DPQMTQSPSSLSASVGDRVTITCQASQSVYNNNYLSWYQQKPGKAPKLLIYDASTLASGVPSRFSGSGSGTDFTLTISSLQPEDFATYYCQGSYYSGGWDTAFGGGTKVEIKTVAAPSVFIFPPSDEQLKSGTASVVCLLNNFYPREAKVQWKVDNALQSGNSQESVTEQDSKDSTYSLSSTLTLSKADYEKHKVYACEVTHQGLSSPVTKSFNRGEC
notes: also called 1-G5_L1 (hIgG1K)
B13: 1-G5_VH-par_L0 (antibody, human IgG1, kappa)
heavy chain: not shown
light chain: DIQMTQSPSSLSASVGDRVTITCQASQSVYNNNYLSWYQQKPGKAPKLLIYDASTLASGVPSRFSGSGSGTDFTLTISSLQPEDFATYYCQGSYYSGGWDTAFGGGTKVEIKTVAAPSVFIFPPSDEQLKSGTASVVCLLNNFYPREAKVQWKVDNALQSGNSQESVTEQDSKDSTYSLSSTLTLSKADYEKHKVYACEVTHQGLSSPVTKSFNRGEC
notes: also called 1-G5_L0 (hIgG1K)
B14: 1-G5_H1_L0 (antibody, human IgG1, kappa)
heavy: not shown
light: DIQMTQSPSSLSASVGDRVTITCQASQSVYNNNYLSWYQQKPGKAPKLLIYDASTLASGVPSRFSGSGSGTDFTLTISSLQPEDFATYYCQGSYYSGGWDTAFGGGTKVEIKTVAAPSVFIFPPSDEQLKSGTASVVCLLNNFYPREAKVQWKVDNALQSGNSQESVTEQDSKDSTYSLSSTLTLSKADYEKHKVYACEVTHQGLSSPVTKSFNRGEC
notes: humanised, human IgG1 kappa
B15: 3-H9_H0_VL-par (antibody, human IgG1, kappa, V domains shown)
VH: QVQLVESGGGVVQPGRSLRLSCAASGFTFSNYDMSWVRQAPGKGLEWVASIHAIGITYYANWAEGRFTISRDNSKNTLYLQMNSLRAEDTAVYYCARGLVDLNMWGQGTLVTVSS
VL: AIKMTQTPSSVSVAVGGTVTINCQSSQSVYSNNLLSWYQQKPGQPPKLLIYDASTLESGVPSRFKGSGSGTQFTLTISGVQCEDAATYYCQGSYYSSGWYNTFGGGTEVVVET
notes: also called 3-H9_H0 (hIgG1)

Tests used:
[1] = target: T1, human full-length VWF (human, UniProt P04275 764-2813); experiment: SPR, Biacore T200, antibody captured on Protein A, full-length VWF as analyte, single-cycle kinetics
Protocol: (§1) Antibodies were captured on Protein A sensor chip. The system was purged using running buffer (10 mM HEPES pH 7.4, 300 mM NaCl, 3 mM EDTA, 0.05% P20) and a series S Protein A chip was docked in the Biacore T200. The surface was conditioned with 10 mM glycine-HCl pH 1.5 regeneration solution (3 injections). Each antibody was diluted to ˜0.8 μg/ml in running buffer to capture ˜350 RU on flow cells 2, 3 and 4 (flow cell 1 used as in-line reference cell). Single-cycle kinetic analysis of human full-length VWF binding to antibodies was performed using the following parameters:

[2] = target: T1, human full-length VWF; experiment: SPR Biacore T200, antibody captured on Protein A chip, full-length VWF as analyte, single-cycle kinetics
Protocol: as §1

[3] = target: T1, human full-length VWF; experiment: SPR, Biacore T200, antibody captured on Protein A, full-length VWF as analyte, single-cycle kinetics; remark: listed apart in the source
Protocol: as §1

Row | Binder | Kd [1] | koff [1] | kon [1] | Kd [2] | Kd [3] | koff [3] | kon [3]
1 | B1 | 14.4 pM | 3.78e-07 s⁻¹ | 26200 M⁻¹ s⁻¹ | – | – | – | –
2 | B2 | 6.77 pM | 1.66e-07 s⁻¹ | 24600 M⁻¹ s⁻¹ | – | – | – | –
3 | B3 | 8.52 pM | 7.2e-07 s⁻¹ | 84500 M⁻¹ s⁻¹ | – | – | – | –
4 | B4 | 0.475 pM | – | – | – | – | – | –
5 | B5 | – | – | – | < 1000 pM | – | – | –
6 | B6 | – | – | – | < 1000 pM | 5.84 pM | 3.82e-07 s⁻¹ | 65400 M⁻¹ s⁻¹
7 | B7 | – | – | – | < 1000 pM | 1.61 pM | 1.73e-07 s⁻¹ | 108000 M⁻¹ s⁻¹
8 | B8 | – | – | – | < 1000 pM | 0.649 pM | 2.67e-08 s⁻¹ | 41200 M⁻¹ s⁻¹
9 | B9 | – | – | – | < 1000 pM | 0.575 pM | 5.95e-08 s⁻¹ | 103000 M⁻¹ s⁻¹
10 | B10 | – | – | – | < 1000 pM | 1.73 pM | 1.14e-07 s⁻¹ | 65700 M⁻¹ s⁻¹
11 | B11 | – | – | – | < 1000 pM | 0.366 pM | 4.93e-08 s⁻¹ | 135000 M⁻¹ s⁻¹
12 | B12 | 12 pM | 1.28e-06 s⁻¹ | 107000 M⁻¹ s⁻¹ | – | – | – | –
13 | B13 | 3.58 pM | 3.8e-07 s⁻¹ | 106000 M⁻¹ s⁻¹ | – | – | – | –
14 | B14 | – | – | – | < 1000 pM | – | – | –
15 | B15 | 4.09 pM | 3.59e-07 s⁻¹ | 87700 M⁻¹ s⁻¹ | – | – | – | –
